B1: anti-IL-15 Fab clone 4H10 (Fab, V domains shown)
VH: EVQLVQSGGGLVEPGGSLRLSCAASGLSISDAWMHWVRQVPGKGLEWVGLITNKTGGGTIIYAAPVKGRFTISRDDSKNTLYLQMNSLKTEDTAMYYCVTTYDQGYWGQGTMVTVSS
VL: ELVLTQSPSSLSASVGDRVTITCRASQSISRYLNWYQQKPGKAPKLLIYGASRLESGVPSRFSGSGSGTDFTLTISSLQPEDFATYYCQQSDSVPVTFGQGTRLEIKR
notes: Tested as a soluble Fab-pIII fusion molecule in E. coli culture supernatant (human Fd = VH+CH1 fused to phage pIII, human kappa light chain); Only the variable domains are tied to the clone; also called 3E3; 4H10 (3E3)
B2: anti-TNF-α Fab clone TNFa#2 (Fab, V domains shown)
VH: EVQLVQSGGGVVQPGRSLRLSCAASGFSFGDYAMHWVRQAPGKGLEWVSGISWNSRIIGYADSVKGRFTISRDKAKNSLYLQMSSLRTEDTAVYYCARMGGDSSGYYSEPYYYFDYWGQGTLVTVSS
VL: B1 VL
notes: Tested as a soluble Fab-pIII fusion molecule in E. coli culture supernatant; only the variable domains are tied to the clone; also called TNFα#2; #5
B3: anti-TNF-α Fab clone TNFa#1 (Fab, V domains shown)
VH: QVQLLQSGGGLVKPGGSLRLSCVASGFTFSSYWMSWVRQAPGKGLEWIGEINHSGSTSYNPSLKSRVTISIDTSKNQFSLKLNSVATADTAVYYCARLGWTMVRGVKYYYGMDVWGQGTMVTVSS
VL: B1 VL
notes: Tested as a soluble Fab-pIII fusion molecule in E. coli culture supernatant; only the variable domains are tied to the clone; also called TNFα#1; #4
B4: anti-IL-15 Fab clone 1H3 (Fab, V domains shown)
VH: B1 VH
VL: ELVLTQSPGTLSLSPGERATLSCRASQSIFNYVAWYQQKPGQAPRLLIYDASNRATGIPARFSGSGSGTDFTLTISSLEPEDFAVYYCQQRSKWPPTWTFGQGTRVDIKR
notes: Tested as a soluble Fab-pIII fusion molecule in E. coli culture supernatant; only the variable domains are tied to the clone
B5: anti-IL-15 Fab clone 3C1 (Fab, V domains shown)
VH: B1 VH
VL: DIVMTQSPSSLSASVGDRVPITCRASQGIRNDLGWYQQKPGKAPKLLIYAASSLQSGVPSRFSGSGSGTDFTLTISSLQPEDFATYYCLQDYNYPWTFGQGTQVEIKR
notes: Tested as a soluble Fab-pIII fusion molecule in E. coli culture supernatant; only the variable domains are tied to the clone; also called 4H7; 3C1 (4H7)
B6: anti-IL-15 Fab clone 8C5 (Fab, V domains shown)
VH: QVQLLQSGPGLVKPSQTLSLTCAISGDSVSSNSAAWNWIRQSPSRGLEWLGRTYYRSKWYNDYAVSVKSRITINPDTSKNQFSLQLNSVTPEDTAVYYCASHKDPGSSWYRQPFDYWGQGTMVTVS
VL: B1 VL
notes: as for B4

Experiments:
[1] = target: T1, MBP-IL-15 fusion protein (recombinant human IL-15 fused to maltose-binding protein) (human, UniProt P40933 49-162); experiment: competitive inhibition ELISA; Fab-pIII supernatant pre-incubated with soluble antigen, then on coated antigen; Kd from IC50 (Klotz plot)
T1 construct: Expressed in E. coli TG1 and purified on amylose resin; also called recombinant human IL-15 antigen
T1 sequence (P40933 49-162 limits assumed): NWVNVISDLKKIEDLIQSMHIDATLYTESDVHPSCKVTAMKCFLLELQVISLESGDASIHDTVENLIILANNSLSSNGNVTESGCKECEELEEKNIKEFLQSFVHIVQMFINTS

[2] = target: T2, recombinant human TNF-alpha (human, UniProt P01375 77-233); experiment: as above
T2 construct: Bought protein; also called TNF-α; tumor necrosis factor-alpha
T2 sequence (P01375 77-233 limits assumed): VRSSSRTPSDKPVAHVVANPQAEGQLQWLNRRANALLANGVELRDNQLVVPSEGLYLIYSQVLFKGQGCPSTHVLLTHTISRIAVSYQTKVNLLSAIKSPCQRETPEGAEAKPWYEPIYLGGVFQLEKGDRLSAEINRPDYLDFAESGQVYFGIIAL

[3] = target: T1, MBP-IL-15 fusion protein (recombinant …); experiment: ELISA (Fig. 3a), Fab-pIII supernatant on coated antigen

Binder	Kd [1] [nM]	Kd [2] [nM]	binding result [3]
B1	100	–	–
B2	–	200	–
B3	–	1000	–
B4	700	–	–
B5	–	–	binds
B6	–	–	binds
